From patent US20170152308A1 (Biogen, published 2017) come the findings set out here.

As a reminder, the EC50 is the concentration that produces a half-maximal response.

Bounds are passed on as bounds.

T1: His-huTDP-43 domain III (amino acid residues 183-273) (human)
T1 construct: Amino terminal His-tagged fragment, E. coli
T1 chain: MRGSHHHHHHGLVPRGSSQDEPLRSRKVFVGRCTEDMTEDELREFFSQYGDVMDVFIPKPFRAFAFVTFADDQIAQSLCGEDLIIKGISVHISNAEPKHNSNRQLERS

T2: His-huTDP-43 domain I (amino acid residues 2-106) (human)
T2 construct: Amino terminal His-tagged fragment, E. coli; also called N-terminal domain
T2 chain: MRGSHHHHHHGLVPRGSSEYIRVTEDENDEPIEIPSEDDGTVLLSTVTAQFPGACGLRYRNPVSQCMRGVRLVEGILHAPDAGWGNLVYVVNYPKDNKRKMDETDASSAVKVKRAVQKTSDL

T3: His-huTDP-43 domain II (amino acid residues 99-204) (human)
T3 construct: Amino terminal His-tagged fragment, E. coli
T3 chain: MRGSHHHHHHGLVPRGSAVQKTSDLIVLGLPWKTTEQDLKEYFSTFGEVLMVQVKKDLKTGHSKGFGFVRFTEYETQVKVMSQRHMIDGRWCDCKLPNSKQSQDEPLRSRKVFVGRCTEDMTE

B1: NI-205.15F12 (antibody, human IgG1, V domains shown)
VH: QVQLVQSGTAVKKPGASVKVSCKASGFSFNGYYMHWVRQAPGQGLEWMGVINPNGGSTNYAQKFKGRITMSADTPARSVSMELGSLRSDDTAMYYCARLPVNIEVLDLWGQGTLVTVSS
VL: DIVMTQSPDSLAVSLGERATINCRSSQTVLFSSNDKNYLAWYQQKPGQPPKLLIYWASVRASGVPDRFSGSGSGTDFSLTINGLQAEDVAVYYCQQSSTAPLTFGGGTKVEIK
notes: Human-derived
B2: NI-205.8A2 (antibody, human IgG1, V domains shown)
VH: QVQLVESGGGVVQPGKSLRLSCAASGFTFRDHGMHWVRQAPGKGLEWVAVIWLDGSSRFYADSVEGRFTISRDNSKNTLYLQLTSLRAEDTAIYYCARDRVASEGTAFDVWGQGTMVTVSS
VL: EIVLTQSPATLSLSPGERATLSCWASQNVNHYLVWYQQRPGQAPRLLLYDTSVRAAGIPARFIGSGSGTHFTLTISSLEPEDSAVYYCQHRSDWTFGQGTKVEIK
notes: Human-derived
B3: NI-205.25F3 (antibody, human IgG1, V domains shown)
VH: QVQLVESGGGVVQPGRSLRLSCAASGFTFSNYVMYWVRQAPGKGLEWVAFISYDGSNKYYPDSVKGRFTISRDNSMNTLYLQMDSLRAEDTAVYYCARDTYQYDSSTYYPYFYYYGMDVWGQGTTVTVSS
VL: QSALTQPASVSGSPGQSITISCIGTSSDVGGYNYVSWYQQHPGKAPKLMIYEVSNRPSGVSSRFSGSKSGNTASLTISGLQSEDEADYYCSSFASSSTSVTFGGGTKLTVL
notes: Human-derived
B4: NI-205.8F8 (antibody, human IgG1, V domains shown)
VH: EVQLLESGGGLVQPGGSLRLSCAASGYTFSYYAMSWVRQAPGKGLEWVSTIGDSGSTTHYADSVKGRFTISRDNSKSTLYLQMNSLRAEDTAVYYCAKGLGPVAAIGDYWGQGTLVTVSS
VL: QSVLTQPPSASGTPGQRVTISCSGSSSNIGSNNVYWYQQLPGTAPKLLVYRNNQRPSGVPDRVSGSKSGSSASLAISGLRSEDEADYYCAAWDDSLRGYVFGTGTKVTVL
notes: Human-derived
B5: NI-205.10D3 (antibody, human IgG1, V domains shown)
VH: QVQLQESGPGLVKPSETLSLTCTVSGGSITDYYWSWIRQPPGKGLEWIGYIHDSGTTRYNPSLTSRLSMSLDTSTNQVSLRLTSVTAADTAVYYCAKVPDYWGQGTLVTVSS
VL: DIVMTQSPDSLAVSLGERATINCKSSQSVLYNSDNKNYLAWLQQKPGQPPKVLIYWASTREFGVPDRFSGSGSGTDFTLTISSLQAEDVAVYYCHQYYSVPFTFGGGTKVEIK
notes: Human-derived
B6: NI-205.10H7 (antibody, human IgG1, V domains shown)
VH: QVQLVESGGGVVQPGRSLRLSCAASGFTFSNYAMHWVRQAPGKGLEWVAVIWYDGSKKYYGDSVKGRFTISRDNPKNTLYLQMNSLRVEDTAIYYCVPDAFDMWGQGTMVTVSS
VL: DIVMTQTPLSSPVTLGQPASISCRSSQSLVHTDGKTYLSWLHQRPGQPPRPLIYKMSKRFSGVPDRFSGSGAETEFTLKISRVEAEDVGIYYCLQLTQFPITFGQGTRLEIK
notes: Human-derived
B7: NI-205.14H5 (antibody, human IgG1, V domains shown)
VH: EVQLLESGGGLVQPGGSLRLSCAASGFTFRNYAMAWVRQAPGKGLEWVSAIPARGDKTYYADSVRGRFTISRDISKSALYLQMNSLRVEDTAVYYCAKAHHLYNKNFDYWGQGTLVTVSS
VL: EIVLTQSPGTLSLSPGETVTLSCRASQSVSSSNLAWYQQKPGQAPRLLIYGASSRATGIPDRFSGRGSGTDFTLTISRLEPEDFAVYYCQHYGTFGQGTKVDIK
notes: Human-derived
B8: NI-205.31D2 (antibody, human IgG1, V domains shown)
VH: EVQLLESGGGSVQPGGSLRLSCAASGFTFSTYVMSWVRQAPGKGLEWVSAISRRGGSTYYADSVKGRFTISRDNSKNTLYLQMNSLRAEDTAVYYCAKDRWLTGRTGGVFDIWGQGTMVTVSS
VL: not shown
notes: Human-derived
B9: NI-205.36D5 (antibody, human IgG1, V domains shown)
VH: QVQLVESGGGVVQPGRSLRLSCAASRFTFSSYGMHWVRQAPGKGLEWVALIYYDATQKYYADSVKGRFTISRDNSKNALYLQMTSLRADDTAVYYCARDLPYHYHRSASFAPADTWGQGTLVTVSS
VL: EIVLTQSPGTLSLSPGERATLSCRASQTISNNYLAWYQQKPGQAPRLLVYAASSRATGIPDRFYGSGSGADFTLTISRLEPEDFVVYYCQQYGSSPITFGQGTRLEIK
notes: Human-derived

T6 sequence (Q13148 220-414): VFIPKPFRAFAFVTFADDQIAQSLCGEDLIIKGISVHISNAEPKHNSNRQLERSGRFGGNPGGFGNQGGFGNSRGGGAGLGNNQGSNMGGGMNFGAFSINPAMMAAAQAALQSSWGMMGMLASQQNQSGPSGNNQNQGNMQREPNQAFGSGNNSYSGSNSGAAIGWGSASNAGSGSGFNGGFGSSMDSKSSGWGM

One assay deals with T4, recombinant full-length His-tagged human TDP-43 (2-414) (human, UniProt Q13148 2-414).
T4 construct: Amino terminal His tag, made in E. coli, purified in 8 M urea; also called full length TDP-43; full-length TDP-43
In words: direct ELISA, coated antigen. On the procedure: (§1) The half maximal effective concentration (EC₅₀) of the human-derived TDP-43-specific antibodies for human TDP-43 and their target target-specificity was determined substantially as described in Example 2 above. Briefly, 96 well microplates (Corning) were coated with recombinant full length TDP-43 (Biogen Idec, USA), Escherichia coli extract and BSA (Sigma, Buchs, Switzerland), diluted to a concentration of 5 μg/ml in carbonate ELISA coating buffer (pH 9.6) overnight at 4° C. […] Non-specific binding sites were blocked for 1 hr. at room temperature with PBS containing 2% BSA (Sigma, Buchs, Switzerland). Human TDP-43-specific antibodies were diluted to the indicated concentrations and incubated 1 hr. at room temperature. Binding was determined using a donkey anti-human IgGγ-specific secondary antibody conjugated with HRP (Jackson ImmunoResearch, USA), followed by measurement of HRP activity in a standard colorimetric assay. EC₅₀ values were estimated by a non-linear regression using GraphPad Prism software (San Diego, USA).
Turning to B1, the EC50 worked out at 7.2 nM.
For the molecule B2, the EC50 was found to be 7.2 nM.
For the molecule B3, the EC50 came to 13.3 nM.

For a further assay, the target named is T4, recombinant full-length His-tagged …. Nature of the assay: direct ELISA, coated antigen. The source holds these as a separate data set. On the procedure:
as §1
For B4, the binding result was “no binding”.
On to B1, for which the EC50 was 7.2 nM.
For B5, the EC50 stood at 7.3 nM.
As to B2, the EC50 came to 7.2 nM.
For B6, the EC50 worked out at 15.3 nM.
Take B7: the EC50 was more than 100 nM.
As to B3, the EC50 stood at 13.3 nM.
Still for that read-out and setting: the same measure for B8: more than 41 nM; for B9: more than 72 nM.

For the next assay, the target named is T1, His-huTDP-43 domain III (amino acid …). Nature of the assay: direct ELISA, His-tagged TDP-43 fragments coated at 6.6 ug/ml, OD 450. On the procedure: (§2) Non-specific binding sites were blocked for 1 hr. at room temperature with PBST containing 2% BSA (Sigma, Buchs, Switzerland). Antibodies were incubated 1 hr. at room temperature. Binding was determined using either a donkey anti-human IgGγ-specific antibody conjugated with HRP (Jackson ImmunoResearch, USA) or a goat-anti mouse IgG (H+L)-specific secondary antibody conjugated with HRP (Jackson ImmunoResearch, USA)., followed by measurement of HRP activity in a standard colorimetric assay.
(In general: An ELISA detects its analyte on a solid surface through an enzyme-linked reagent.)
For B3, the binding result is listed as “no binding”.

The target of another assay is T2, His-huTDP-43 domain I (amino acid …). The description is as above. On the procedure:
as §2
As for B2, the binding result is “no binding”.
On to B3, for which the binding result is reported as “no binding”.

For a further assay, the target named is T3, His-huTDP-43 domain II (amino acid …). The assay is described as above. On the procedure:
as §2
As for B3, the binding result is recorded as “no binding”.

A further assay deals with T5, 6xHis-SUMO-TDP-43 (1-414), properly folded full length (human, UniProt Q13148 1-414).
T5 construct: Purified with KSCN and arginine, monomeric; captured on the plate by an anti-6xHis antibody; also called folded full-length TDP-43; 6xHis/SUMO tagged full length TDP-43; not shown: N-terminal 6xHis and SUMO tags from a modified pET19-b vector
T5 sequence (Q13148 whole entry): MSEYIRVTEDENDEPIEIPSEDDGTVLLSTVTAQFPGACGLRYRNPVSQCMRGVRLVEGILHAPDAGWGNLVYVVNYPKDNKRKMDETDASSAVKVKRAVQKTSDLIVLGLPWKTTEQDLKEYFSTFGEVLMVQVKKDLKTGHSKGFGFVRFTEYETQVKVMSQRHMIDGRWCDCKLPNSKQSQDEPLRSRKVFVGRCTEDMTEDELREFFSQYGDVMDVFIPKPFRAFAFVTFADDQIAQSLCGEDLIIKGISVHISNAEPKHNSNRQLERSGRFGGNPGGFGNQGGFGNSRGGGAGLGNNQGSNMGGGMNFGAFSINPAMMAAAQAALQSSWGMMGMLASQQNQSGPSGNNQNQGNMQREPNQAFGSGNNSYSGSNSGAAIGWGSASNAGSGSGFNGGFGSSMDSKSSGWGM
Nature of the assay: capture ELISA, antigen held by anti-6xHis antibody. On the procedure: (§3) Non-specific binding sites were blocked for 1 hr at RT with PBS containing 1% BSA (Sigma) and 0.05% Tween-20 (Fisher Scientific). 6×His-SUMO-TDP43 proteins at a concentration of 1.7 μM were allowed to bind to antibody-coated plates for 1 hr at RT in PBS buffer containing 1% BSA, 300 mM arginine and 0.1% PEG 5000, pH 7.5. Plates were incubated for 1 hr at RT with human antibodies of present invention, titrated in a three-fold dilution series, followed by HRP conjugated anti-human IgG Fc γ (Jackson ImmunoResearch) in PBST containing 1% BSA. HRP activity was measured in a standard colorimetric assay. EC₅₀ values were calculated using a four-parameter logistic curve fit on Softmax pro software (Molecular Devices).
(§4) We measured the binding affinity of the human-derived TDP-43 specific antibodies provided herein to properly folded 6×His/SUMO tagged TDP-43 using a capture ELISA in which native TDP-43 was immobilized without direct adsorption on the surface of the ELISA plate. This was achieved by immobilizing an anti 6×His antibody which then captured native TDP-43. […] After this immobilization step, binding by human antibodies was tested in regular buffers without interference of TDP-43 aggregation.
Molecule B4 had an EC50 of more than 94 nM.
Same read-out and setting: the same measure for B1: 16.3 nM; for B5: more than 90 nM.
B2 showed an EC50 of 34 nM.
The molecule B6 registered an EC50 of 30.9 nM.
Molecule B7 had an EC50 of more than 100 nM.
For the molecule B3, the EC50 is more than 120 nM.
The same measure, in the same setting: the same measure for B8: 41 nM.
The same measure, in the same setting: the figure for B9 is more than 72 nM.

The next assay addresses T6, 6xHis-SUMO-TDP-43 (220-414) (human, UniProt Q13148 220-414).
T6 construct: Captured on the plate by an anti-6xHis antibody; also called 6xHis/SUMO tagged truncated TDP-43; not shown: N-terminal 6xHis and SUMO tags from a modified pET19-b vector
Nature of the assay: capture ELISA, antigen held by anti-6xHis antibody. On the procedure: as §3, §4
In turn, B1 gave an EC50 of 9.7 nM.
B5 showed a concentration for a half-maximal effect (EC50) of 20.5 nM.
As to B2, the response was half-maximal at 4.6 nM (EC50).
In the case of B6, it took 6.45 nM to reach a half-maximal effect (EC50).
B3 displayed an EC50 of more than 100 nM.
As to B8, the EC50 came to 19.4 nM.
The same measure, in the same setting: the same measure for B9: more than 60 nM.

Another assay has as its target T1, His-huTDP-43 domain III (amino acid …). Nature of the assay: Western blot, 300 ng recombinant protein per lane, primary antibody 10 nM. As to the method:
(§5) Non-specific binding sites were blocked for 1 hr. at room temperature with PBST containing 2% BSA (Sigma, Buchs, Switzerland). Blots were incubated overnight with primary antibodies (10 nM) followed by either a donkey anti-human IgGγ-specific secondary antibody conjugated with HRP (Jackson ImmunoResearch, USA) or a goat-anti mouse IgG (H+L)-specific secondary antibody conjugated with HRP (Jackson ImmunoResearch, USA). Blots were developed using ECL and ImageQuant 350 detection (GE Healthcare, Otelfingen, Switzerland).
Regarding B1, the binding result is on record as “no binding (tested: 10 nM)”.
For B5, the binding result is “no binding (tested: 10 nM)”.
As for B2, the binding result is “no binding (tested: 10 nM)”.
Turning to B6, the binding result is reported as “no binding (tested: 10 nM)”.

Another assay addresses T2, His-huTDP-43 domain I (amino acid …). The description is as above. As to the method:
as §5
As to B1, the binding result is “no binding (tested: 10 nM)”.
On to B5, for which the binding result is recorded as “no binding (tested: 10 nM)”.
In the case of B6, the binding result is on record as “no binding (tested: 10 nM)”.

The next assay deals with T3, His-huTDP-43 domain II (amino acid …). Described as above. On the procedure: as §5
For the molecule B1, the binding result is given as “no binding (tested: 10 nM)”.
In the case of B5, the binding result is “no binding (tested: 10 nM)”.
On the same count and under the same terms, the entry for B6 is “no binding (tested: 10 nM)”.
